Experimental data: patent US20250388683A1 (VETOQUINOL, published 2025)
Positions count from the first letter of the chain named. Like-named read-outs stand apart in the source and are kept apart here.

B1: monoclonal anti-cIL-31RA antibody 28F12 (antibody, V domains shown)
VH: EVQLVESDGGLAQPGRSLKLSCAASGFTFSDYYMAWVRQAPTKGLEWVATISYDGSSTYYRDSVRGRFTISRDNAKSTLYLQMDSLRSEDTATYYCARGPLTDWAPNWFAYWGQGTLVTVSS
VL: DIQMTQSPASLSASLGETVTIQCQTSEDIYSGLAWYQQKPGKSPQFLIYGASRLEDGVPSRFSGSGSGTQYSLKISSMQTEDEGVYFCQQGLKYPNTFGAGTKLELK
B2: 8D3-VH-H/8D3-VL-Ev2 caninized antibody (antibody, V domains shown)
VH: EVTLQESGPGLVKPSQTLSLTCVASGFSIKDSFIHWLRQRPGRGLEWIGRIDPAQGATEYDANFQGRISITADTAKNQASLQLSSMTTEDTAVYYCARYYYGASHFDAWGQGTLVTVSS
VL: RIVMTQSPGSLAGSVGESVSINCKSSQSVTNDVTWYQQKPGEAPKVLIHYASQRYSGVPARFSGSGYGTDFTLTINNLQAEDVGDYFCQQDYASPFTFGQGTKLEIK
B3: 8D3-clone7v2-VH/8D3-clone 7-VL caninized antibody (antibody, V domains shown)
VH: B2 VH with D31S, A54L, A57G, D61N, A62P, N63V, A75T, A79V, G102A, A103Q
VL: B2 VL with V15A, V33L, S56T, D85V, A93S
B4: 8D3-VH-L/8D3-VL-G caninized antibody (antibody, V domains shown)
VH: B2 VH with D31S, Q55F, D61N, A62P, N63A, I68F, T91S, Y100H, G102A
VL: B2 VL with V33L, S56P
B5: 8D3-VH-L/8D3-VL-Ev2 caninized antibody (antibody, V domains shown)
VH: B2 VH with D31S, Q55F, D61N, A62P, N63A, I68F, T91S, Y100H, G102A
VL: B2 VL
B6: 8D3-VH-518/8D3-VL-A caninized antibody (antibody, V domains shown)
VH: VTLQESGPGLVKPSQTLSLTCVASGFSIKDSFIHWLRQRPGRGLEWIGYIDPLQGNTEYDPVFQGRLSITADTAKNQVSLQLSSMTTEDTAVYYCARYYYARSHFDAWGQGTLVTVSS
VL: B2 VL with V15A, S25A, A43R, Q53N, S56T, Y67S, L73F, A93S
B7: 8D3-VH-Lv2/8D3-VL-E caninized antibody (antibody, V domains shown)
VH: B2 VH with D31S, A54L, D61N, A62P, N63V, I68L, A79V, Y100H, G102A, A103Q
VL: B2 VL with G13V, Q38W, H49T, Q53I
B8: 8D3-VH-Lv2/8D3-VL-Ev2 caninized antibody (antibody, V domains shown)
VH: B2 VH with D31S, A54L, D61N, A62P, N63V, I68L, A79V, Y100H, G102A, A103Q
VL: B2 VL
B9: 8D3-VH-Lv2/8D3-VL-G caninized antibody (antibody, V domains shown)
VH: B2 VH with D31S, A54L, D61N, A62P, N63V, I68L, A79V, Y100H, G102A, A103Q
VL: B2 VL with V33L, S56P
B10: 8D3-VH-N/8D3-VL-Ev2 caninized antibody (antibody, V domains shown)
VH: B2 VH with D31S, R50Y, A54L, A57G, D61N, A62P, N63V, A79V, G102A, A103Q
VL: B2 VL
B11: 8D3-VH-N/8D3-VL-E caninized antibody (antibody, V domains shown)
VH: B2 VH with D31S, R50Y, A54L, A57G, D61N, A62P, N63V, A79V, G102A, A103Q
VL: B2 VL with G13V, Q38W, H49T, Q53I
B12: 8D3-VH-518H/8D3-VL-A caninized antibody (antibody, V domains shown)
VH: EVTLQESGPGLVKPSQTLSLTCVASGFSIKSSFIHWLRQRPGRGLEWIGYIDPLQGGTEYNPVFQGRLSITADTAKNQVSLQLSSMTTEDTAVYYCARYHYATSHFDAWGQGTLVTVSS
VL: B2 VL with V15A, S25A, A43R, Q53N, S56T, Y67S, L73F, A93S
B13: 8D3-VH-518/8D3-VL-Ev2 caninized antibody (antibody, V domains shown)
VH: B6 VH
VL: B2 VL
B14: 8D3-VH-Lv2/8D3-VL-H caninized antibody (antibody, V domains shown)
VH: B12 VH with Y50R, G57A, T103Q
VL: B2 VL with V33L, H49T, S56T
B15: scFv-Fc-VTQ2201 (scFv-VTQ2201-HLλcap-GS18-Mouse IgG2A-LALAPG-Fc) (Fc fusion)
scFv: EVQLQQSGAELVKPGASVKLSCTASGFNIKDSFIHWLKQRPEQGLEWIGRIDPANGNTEYDPNFQGKVTITADTSSNTAYLQLSSLTSEDTAVYYCARYYYGNSHFDAWGQGTTLTVSSGSTSGGGSGGGSGGGGSSRIVMNQTPKFLPISAGDRVIITCKASQSVTNDVTWYQQKPGQSPKVLIHYASNRYTGVPDRFTGSGYGTDFTFTISTVQAEDLAVYFCQQDYSSPFTFGSGTKLTVLGPRGPTIKPCPPCKCPAPNAAGGPSVFIFPPKIKDVLMISLSPIVTCVVVDVSEDDPDVQISWFVNNVEVHTAQTQTHREDYNSTLRVVSALPIQHQDWMSGKEFKCKVNNKDLGAPIERTISKPKGSVRAPQVYVLPPPEEEMTKKQVTLTCMVTDFMPEDIYVEWTNNGKTELNYKNTEPVLDSDGSYFMYSKLRVEKKNWVERNSYSCSVVHEGLHNHHTTKSFSRTPGK
B16: scFv-Fc-VTQ2202 (scFv-VTQ2202-HLλcap-GS18-MOUSE IgG2A-LALAPG-Fc) (Fc fusion)
scFv: EVQLQQSGAELVKPGASVKLSCTASGFNIKSSFIHWLKQRPEQGLEWIGRIDPAFGATEYNPAFQGKVTITADTSSNTAYLQLSSLTSEDTAVYYCARYHYAASHFDAWGQGTTLTVSSGSTSGGGSGGGSGGGGSSRIVMNQTPKFLPISAGDRVIITCKSSQSVTNDLTWYQQKPGQSPKVLIHYASQRYTGVPDRFTGSGYGTDFTFTISTVQAEDLAVYFCQQDYASPFTFGSGTKLTVLGPRGPTIKPCPPCKCPAPNAAGGPSVFIFPPKIKDVLMISLSPIVTCVVVDVSEDDPDVQISWFVNNVEVHTAQTQTHREDYNSTLRVVSALPIQHQDWMSGKEFKCKVNNKDLGAPIERTISKPKGSVRAPQVYVLPPPEEEMTKKQVTLTCMVTDFMPEDIYVEWTNNGKTELNYKNTEPVLDSDGSYFMYSKLRVEKKNWVERNSYSCSVVHEGLHNHHTTKSFSRTPGK
B17: scFv-VTQ2101-LH-Fc (scFv-VTQ2101-LH-GS18-Canine IgG2B-LALAPG-Fc) (Fc fusion)
scFv: RIVMTQSPGSLAGSVGESVSINCKSSQSVTNDLTWYQQKPGEAPKVLITYASQRYTGVPARFSGSGYGTDFTLTINNLQAEDVGDYFCQQDYASPFTFGQGTKLEIKGSTSGGGSGGGSGGGGSSEVTLQESGPGLVKPSQTLSLTCVASGFSIKSSFIHWLRQRPGRGLEWIGRIDPAFGATEYNPAFQGRFSITADTAKNQASLQLSSMTTEDSAVYYCARYHYAASHFDAWGQGTLVTVSSPKRENGRVPRPPDCPKCPAPEAAGGPSVFIFPPKPKDTLLIARTPEVTCVVVDLDPEDPEVQISWFVDGKQMQTAKTQPREEQFNGTYRVVSVLPIGHQDWLKGKQFTCKVNNKALGSPIERTISKARGQAHQPSVYVLPPSREELSKNTVSLTCLIKDFFPPDIDVEWQSNGQQEPESKYRTTPPQLDEDGSYFLYSKLSVDKSRWQRGDTFICAVMHEALHNHYTQESLSHSPG

What was measured:
Assay in all cases: cell-based or functional assay
[1] = target: T1, canine IL-31RA expressed on HEK-Blue STAT3 canine IL-31R reporter cells (with canine OSMR) (canine)
[2] = target: T1, canine IL-31RA expressed on HEK-Blue …; remark: listed apart in the source
[3] = target: T1, canine IL-31RA expressed on HEK-Blue …; remark: listed apart in the source
[4] = target: T1, canine IL-31RA expressed on HEK-Blue …; remark: listed apart in the source
[5] = target: T1, canine IL-31RA expressed on HEK-Blue …; remark: listed apart in the source
[6] = target: T1, canine IL-31RA expressed on HEK-Blue …; remark: listed apart in the source
[7] = target: T1, canine IL-31RA expressed on HEK-Blue …; remark: listed apart in the source
[8] = target: T1, canine IL-31RA expressed on HEK-Blue …; remark: listed apart in the source

| Binder | Mean IC50 (nM) (n = 3), HEK-Blue cell-based SEAP assay [3] | also measured |
| --- | --- | --- |
| B1 |  | IC50 ratio (IC50 candidate/IC50 VTQ2101) [1]: 5.6 ratio; IC50 (read off the curve); STAT3-SEAP reporter, canine IL-31 stimulation [2]: ~0.7 nM |
| B2 | 0.59 nM |  |
| B3 | 0.44 nM |  |
| B4 | 0.44 nM |  |
| B5 | 0.41 nM |  |
| B6 | 0.54 nM |  |
| B7 | 0.49 nM |  |
| B8 | 0.38 nM |  |
| B9 | 0.41 nM |  |
| B10 | 0.54 nM |  |
| B11 | 0.44 nM |  |
| B12 | 0.48 nM |  |
| B13 | 0.57 nM |  |
| B14 | 0.54 nM |  |
| B15 |  | IC50 ratio (IC50 candidate/IC50 VTQ2101) [4]: 1 ratio; IC50 (read off the curve); STAT3-SEAP reporter, canine IL-31 stimulation [5]: ~1 nM |
| B16 |  | IC50 ratio (IC50 candidate/IC50 VTQ2101) [4]: 1 ratio; IC50 (read off the curve); STAT3-SEAP reporter, canine IL-31 stimulation [6]: ~0.8 nM |
| B17 |  | IC50 ratio (IC50 candidate/IC50 VTQ2101) [7]: 2.2 ratio; IC50 (read off the curve); STAT3-SEAP reporter, canine IL-31 stimulation [8]: 1 to 10 nM |
